Measurements taken from the supplement of paper PMC10724198.
± gives the standard deviation of the averaged measurements.

How the values were obtained:
Saccharomyces cerevisiae [1] = assay: protein stability index of tFT-peptide fusion (C-terminal peptide) (PSI (0-1 scale)); higher = more stable (slower turnover)
Experimental: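 MPS profiling in S. cerevisiae of the tFT-X12 degron library: putative degron peptides plus stable controls, 12 aa, fused to the C-terminus of a sfGFP-mCherry timer. Cells are FACS-sorted into 8 mCherry/sfGFP bins and deep-sequenced. PSI runs from 0 (unstable) to 1 (stable). Backgrounds are wild type, das1Δ and doa10Δ at 30 °C, and wild type, das1Δ, cdc34-1 and cdc53-1 at 37 °C; 2-3 technical replicates each.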

Saccharomyces cerevisiae [2] = assay: as above; details: genetic background: wild type; temperature: 30 C
[3] = genetic background: cdc34-1, temperature: 37 C
[4] = genetic background: cdc53-1, temperature: 37 C
[5] = genetic background: das1 deletion, temperature: 30 C
[6] = genetic background: das1 deletion, temperature: 37 C
[7] = genetic background: doa10 deletion, temperature: 30 C
[8] = genetic background: wild type, temperature: 30 C
[9] = genetic background: wild type, temperature: 37 C
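Note: PSI is a weighted mean of sequencing reads over stability bins, variants kept only with over 10 reads, mCherry proximal and sfGFP distal, peptide attached via GGGS linker.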

Row | Sequence | protein stability index (Saccharomyces cerevisiae [1]; [3]) | protein stability index (Saccharomyces cerevisiae [1]; [4]) | protein stability index (Saccharomyces cerevisiae [1]; [5]) | protein stability index (Saccharomyces cerevisiae [1]; [6]) | protein stability index (Saccharomyces cerevisiae [1]; [7]) | protein stability index (Saccharomyces cerevisiae [1]; [8]) | protein stability index (Saccharomyces cerevisiae [1]; [9]) | protein stability index (Saccharomyces cerevisiae [2])
1 | TRVVSPNVILMC | 0.6679 ± 0.00086 | 0.7417 ± 0.0073 | 0.61 ± 0.027 | 0.725 ± 0.019 | 0.5135 ± 0.0048 | 0.526 ± 0.022 | 0.673 ± 0.009 | 0.505 ± 0.017
2 | TTSHFCVVLVSV | 0.283 ± 0.042 | 0.307 ± 0.016 | 0.232 ± 0.039 | 0.382 ± 0.009 | 0.182 ± 0.012 | 0.217 ± 0.032 | 0.356 ± 0.013 | 0.32 ± 0.016
3 | TVERKMYWQRWG | 0.666 ± 0.029 | 0.745 ± 0.025 | 0.641 ± 0.011 | 0.754 ± 0.01 | 0.1794 ± 0.00073 | 0.187 ± 0.0033 | 0.4975 ± 0.0044 | 0.391 ± 0.045
4 | TVGVGWVWVGVL | 0.5667 ± 0.00058 | 0.611 ± 0.026 | 0.446 ± 0.026 | 0.649 ± 0.015 | 0.367 ± 0.0044 | 0.403 ± 0.015 | 0.576 ± 0.015 | 0.467 ± 0.015
5 | TVIVCCHLEVVY | 0.0776 ± 0.07 | 0.0367 ± 0.024 | 0.0294 ± 0.014 | 0.0693 ± 0.013 | 0.0254 ± 0.013 | 0.0249 ± 0.0089 | 0.0685 ± 0.023 | 0.0135 ± 0.0057
6 | VAALLCWLHLYA | 0.602 ± 0.018 | 0.639 ± 0.02 | 0.509 ± 0.019 | 0.622 ± 0.032 | 0.362 ± 0.007 | 0.409 ± 0.029 | 0.563 ± 0.0096 | 0.498 ± 0.011
7 | VAFVVALSLIFL | 0.327 ± 0.019 | 0.443 ± 0.014 | 0.306 ± 0.028 | 0.424 ± 0.0062 | 0.281 ± 0.019 | 0.333 ± 0.043 | 0.43 ± 0.023 | 0.386 ± 0.0059
8 | VALSILCVFFFF | 0.253 ± 0.021 | 0.357 ± 0.01 | 0.272 ± 0.035 | 0.4457 ± 0.0032 | 0.24 ± 0.025 | 0.273 ± 0.022 | 0.383 ± 0.0064 | 0.309 ± 0.055
9 | VARLGGRIGWEG | 0.694 ± 0.022 | 0.736 ± 0.019 | 0.634 ± 0.014 | 0.763 ± 0.015 | 0.652 ± 0.026 | 0.646 ± 0.013 | 0.7208 ± 0.0018 | 0.548 ± 0.17
10 | VCFCFLRFLSLL | 0.543 ± 0.043 | 0.685 ± 0.014 | 0.572 ± 0.031 | 0.716 ± 0.031 | 0.176 ± 0.0026 | 0.191 ± 0.0057 | 0.24 ± 0.019 | 0.262 ± 0.016
11 | VCFFSSSCFLLV | 0.58 ± 0.026 | 0.607 ± 0.015 | 0.507 ± 0.021 | 0.623 ± 0.01 | 0.463 ± 0.0036 | 0.45 ± 0.033 | 0.567 ± 0.0069 | 0.47 ± 0.035
12 | VCLVFVVRPCIR | 0.549 ± 0.021 | 0.578 ± 0.023 | 0.436 ± 0.033 | 0.606 ± 0.022 | 0.401 ± 0.0078 | 0.414 ± 0.023 | 0.599 ± 0.0089 | 0.4904 ± 0.0027
13 | VCLWAIHLSGCW | 0.546 ± 0.046 | 0.601 ± 0.048 | 0.46 ± 0.022 | 0.58776 ± 0.00056 | 0.453 ± 0.021 | 0.449 ± 0.03 | 0.584 ± 0.014 | 0.475 ± 0.035
14 | VCNYRKLIWKHH | 0.52 ± 0.024 | 0.661 ± 0.047 | 0.653 ± 0.015 | 0.746 ± 0.029 | 0.0622 ± 0.031 | 0.0668 ± 0.033 | 0.13 ± 0.012 | 0.181 ± 0.023
15 | VCVLRWAVAPCR | 0.287 ± 0.0041 | 0.342 ± 0.0038 | 0.245 ± 0.035 | 0.429 ± 0.0067 | 0.207 ± 0.0051 | 0.235 ± 0.032 | 0.399 ± 0.013 | 0.356 ± 0.027
16 | VCWCVVVLEFGL | 0.15 ± 0.049 | 0.367 ± 0.15 | 0.197 ± 0.031 | 0.363 ± 0.0062 | 0.168 ± 0.012 | 0.185 ± 0.029 | 0.267 ± 0.044 | 0.313 ± 0.013
17 | VECPWFCLGVLA | 0.336 ± 0.027 | 0.318 ± 0.018 | 0.278 ± 0.04 | 0.4359 ± 0.0013 | 0.2324 ± 0.001 | 0.284 ± 0.022 | 0.416 ± 0.0065 | 0.3848 ± 0.0018
18 | VERKLMTIYIKI | 0.6106 ± 0.0052 | 0.6479 ± 0.003 | 0.451 ± 0.018 | 0.6806 ± 0.0061 | 0.492 ± 0.015 | 0.499 ± 0.063 | 0.6076 ± 0.00061 | 0.493 ± 0.005
19 | VFAFVVFLHFEC | 0.188 ± 0.015 | 0.296 ± 0.048 | 0.237 ± 0.036 | 0.375 ± 0.013 | 0.184 ± 0.012 | 0.238 ± 0.029 | 0.375 ± 0.066 | 0.31 ± 0.0057
20 | VFFCLFWFFCSF | 0.54 ± 0.009 | 0.571 ± 0.057 | 0.482 ± 0.031 | 0.54 ± 0.0084 | 0.454 ± 0.0066 | 0.453 ± 0.017 | 0.492 ± 0.012 | 0.51 ± 0.12
21 | VFFVTSCWVFRG | 0.416 ± 0.018 | 0.574 ± 0.019 | 0.432 ± 0.022 | 0.64 ± 0.022 | 0.0921 ± 0.02 | 0.109 ± 0.028 | 0.208 ± 0.029 | 0.1794 ± 0.0015
22 | VFGFSLLTLLVL | 0.441 ± 0.0078 | 0.511 ± 0.025 | 0.386 ± 0.0081 | 0.5062 ± 0.0021 | 0.324 ± 0.011 | 0.347 ± 0.024 | 0.467 ± 0.019 | 0.439 ± 0.022
23 | VFRRWGLIGVIV | 0.306 ± 0.026 | 0.326 ± 0.022 | 0.278 ± 0.041 | 0.434 ± 0.018 | 0.181 ± 0.0038 | 0.226 ± 0.032 | 0.353 ± 0.0088 | 0.378 ± 0.0068
24 | VFSGGGFFLKVV | 0.67453 ± 9.2e-05 | 0.765 ± 0.01 | 0.651 ± 0.024 | 0.755 ± 0.022 | 0.19 ± 0.0039 | 0.215 ± 0.023 | 0.504 ± 0.02 | 0.3766 ± 0.0029
25 | VFSVSVLFLFFH | 0.286 ± 0.0084 | 0.392 ± 0.0056 | 0.282 ± 0.034 | 0.456 ± 0.015 | 0.251 ± 0.011 | 0.242 ± 0.038 | 0.381 ± 0.019 | 0.377 ± 0.032
26 | VFVLFCAFVRAL | 0.212 ± 0.025 | 0.413 ± 0.032 | 0.286 ± 0.036 | 0.482 ± 0.014 | 0.0841 ± 0.013 | 0.0907 ± 0.0079 | 0.096736 ± 8.4e-05 | 0.2111 ± 0.00022
27 | VFVLFLRAVACR | 0.0227 ± 0.0013 | 0.0336 ± 0.0004 | 0.0288 ± 0.0046 | 0.0423 ± 0.0022 | 0.0174 ± 0.0024 | 0.0193 ± 0.0039 | 0.0342 ± 0.015 | 0.0236 ± 0.013
28 | VFVMVLCALFYF | 0.248 ± 0.034 | 0.282 ± 0.04 | 0.242 ± 0.032 | 0.38 ± 0.032 | 0.2436 ± 0.0014 | 0.236 ± 0.017 | 0.319 ± 0.015 | 0.279 ± 0.022
29 | VFYRPFFVLFFV | 0.246 ± 0.026 | 0.228 ± 0.004 | 0.265 ± 0.022 | 0.413 ± 0.011 | 0.113 ± 0.016 | 0.0946 ± 0.022 | 0.152 ± 0.0038 | 0.114 ± 0.0065
30 | VGDVVWFGVGAG | 0.733 ± 0.033 | 0.7757 ± 0.0042 | 0.662 ± 0.0049 | 0.782 ± 0.0084 | 0.662 ± 0.022 | 0.6566 ± 0.005 | 0.7438 ± 0.0022 | 0.761 ± 0.023
